T1: human fibrinogen (human, UniProt P02671 20-629; P02675 31-491; P02679 27-437)
T1 sequence 1: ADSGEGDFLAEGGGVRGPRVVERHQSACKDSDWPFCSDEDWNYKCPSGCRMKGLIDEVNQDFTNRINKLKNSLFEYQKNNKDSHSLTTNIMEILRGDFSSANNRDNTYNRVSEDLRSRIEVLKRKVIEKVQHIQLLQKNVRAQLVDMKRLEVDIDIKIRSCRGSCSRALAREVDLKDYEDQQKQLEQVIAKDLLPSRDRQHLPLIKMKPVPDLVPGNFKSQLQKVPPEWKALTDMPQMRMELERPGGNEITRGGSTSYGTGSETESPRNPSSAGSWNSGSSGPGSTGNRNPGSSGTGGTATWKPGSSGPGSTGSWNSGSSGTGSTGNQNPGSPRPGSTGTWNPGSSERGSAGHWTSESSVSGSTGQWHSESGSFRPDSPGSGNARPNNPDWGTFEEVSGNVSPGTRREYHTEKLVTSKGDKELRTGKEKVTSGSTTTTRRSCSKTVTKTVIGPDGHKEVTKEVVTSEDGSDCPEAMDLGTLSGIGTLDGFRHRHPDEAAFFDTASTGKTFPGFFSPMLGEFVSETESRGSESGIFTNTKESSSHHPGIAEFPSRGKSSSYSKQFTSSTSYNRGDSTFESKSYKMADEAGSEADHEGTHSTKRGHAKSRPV
T1 sequence 2: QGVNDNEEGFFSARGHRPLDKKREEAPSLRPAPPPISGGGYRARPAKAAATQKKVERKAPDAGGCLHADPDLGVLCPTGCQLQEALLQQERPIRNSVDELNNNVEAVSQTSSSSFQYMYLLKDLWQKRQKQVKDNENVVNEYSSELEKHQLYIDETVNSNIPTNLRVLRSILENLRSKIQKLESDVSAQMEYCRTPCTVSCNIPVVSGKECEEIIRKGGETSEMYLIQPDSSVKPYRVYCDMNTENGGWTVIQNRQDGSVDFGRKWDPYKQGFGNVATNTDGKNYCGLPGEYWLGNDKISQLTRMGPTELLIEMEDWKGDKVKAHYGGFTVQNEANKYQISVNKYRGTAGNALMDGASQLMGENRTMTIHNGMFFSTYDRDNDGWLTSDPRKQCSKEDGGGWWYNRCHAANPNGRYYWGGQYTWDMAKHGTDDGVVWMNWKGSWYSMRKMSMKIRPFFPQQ
T1 sequence 3: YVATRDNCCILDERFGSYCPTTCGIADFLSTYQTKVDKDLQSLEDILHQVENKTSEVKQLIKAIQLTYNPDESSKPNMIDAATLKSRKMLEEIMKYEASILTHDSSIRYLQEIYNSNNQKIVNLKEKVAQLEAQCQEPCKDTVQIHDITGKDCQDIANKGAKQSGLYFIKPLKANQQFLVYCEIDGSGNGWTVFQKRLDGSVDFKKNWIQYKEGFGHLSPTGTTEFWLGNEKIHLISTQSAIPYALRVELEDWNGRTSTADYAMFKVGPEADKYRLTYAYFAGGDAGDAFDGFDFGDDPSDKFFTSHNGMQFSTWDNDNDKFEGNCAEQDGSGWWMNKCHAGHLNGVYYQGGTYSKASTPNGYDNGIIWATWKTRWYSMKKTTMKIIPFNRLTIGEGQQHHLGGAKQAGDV

B1: EF2224 A domain (EF2224A), N-terminal His6-tag fusion protein (other)
chain: QEVTSDAEKTVEKDGLKVIGKIEDTSSQEDIKTVTYEVTNTRDVPIKDLILKQKNTNDSPIKFVLDTLSEERGPTSLEEQAKVETNEKDQTTDIKLLNLQPNSTRKITINGQITTKASNKLLVSVLIEDNEKGTLVIDLPSKDILADKESVSKEKQETSETKVENQANETASSTNEMTATTSNETKPEAGKAIESIQETALTQATESPEQPPLKAQPTGPLVPPTPGRGFNTPIYQSVHKGELFSTGNTNLKIANENTAAAQTFLNTRGASSGYAINNFPLEFADVDNDPNTYNSSRAYIDLNGAKEIAWAGLFWSASRYKGPAYGTNLSDEEISAPVQFTTPNGTVQRVSPQRYHRIDQDATNPGQRFGYNNTGFSNYADVTSILQGDKSATGSYTLADIPMTSSLNGQYQYYNFSGWSLFVVTKDQASKSRAFSIYYGARGNAAGTNNEFTMSNFLTAKQGNLDPIVTWFTVQGDKYWTGDNAQIKNSAGTWVNISNTLNPVNNAMNATVTDNDEHMVDKYPGKFAPDHPNFLDIDIDRMAIPEGVLNAGQNQINFRTTSSGDDYSTNAIGFAVNAETPEFEIKKEIVEPKETYKVGETITYRVSLKNTKADSEAINSVSKDALDGRLNYLPGSLKIISGPNSGEKTDASGDDQAEYDETNKQIIVRVGNGATATQGGSYKADTAETIYEFKARINERAKANELVPNSATVEAVDILTSAKVNETSNIVEAKIADEQVT
notes: Expressed in E. coli from pQE-30 and purified; not shown: N-terminal His6-tag from vector pQE-30
B2: EF1269 A domain (EF1269A), N-terminal His6-tag fusion protein (other)
chain: ETGYAQTEPTSTSETNQISATPNVVPRKQVGNIVTAIQLTDKEGNPLGTINQYTDIYLRIEFNLPDNTVNSGDTSVITLPEELRLEKNMTFNVVDDTGTVVAIAQTDVANKTVTLTYTDYVENHANISGSLYFTSLIDFENVENESKIPIYVTVEGEKIFAGDLDYQGEGDDVNEKFSKYSWFIEDDPTEIYNVLRINPTGQTYTDLEVEDVLKTESLSYMKDTMKIERGQWTLDGNAIWQFTPEEDITDQLAVQYGPDDRNFSVHFGNIGTNEYRITYKTKIDHLPEKGETFTNYAKLTENQTVVEEVEVSRVSQTGGGEANGEQYVVEIHKEDEAGQRLAGAEFELIRNSTNQTVAKITTDQNGTAIVKGLLKDNYTLVETKAPTGYQLSQNKIPITPEDFGKNLVALKTVVNHKISYQPVAASFLAGKVLLGKPLKDAEFQFELLDEKGTVLETVSNDTLGKIQFSPLTFETPGNYQYTIREVNTQQTGVSYDTHNLQVQVTVEALLGNLVATTQYDGGQVFTNHYTPEKPIESTTPPTSGTTDTTTNSTTETTSITIEKQAIRNKE
notes: not shown: N-terminal His6-tag from vector pQE-30
B3: EF1093 A domain (recombinant EF1093), N-terminal His6-tag fusion protein (other)
chain: EENGESAQLVIHKKKMTDLPDPLIQNSGKEMSEFDKYQGLADVTFSIYNVTNEFYEQRAAGASVDAAKQAVQSLTPGKPVAQGTTDANGNVTVQLPKKQNGKDAVYTIKEEPKEGVVAATNMVVAFPVYEMIKQTDGSYKYGTEELAVVHIYPKNVVANDGSLHVKKVGTAENEGLNGAEFVISKSEGSPGTVKYIQGVKDGLYTWTTDKEQAKRFITGKSYEIGENDFTEAENGTGELTVKNLEVGSYILEEVKAPNNAELIENQTKTPFTIEANNQTPVEKTVKNDTSKVDKTTPSLDGKDVAIGEKIKYQISVNIPLGIADKEGDANKYVKFNLVDKHDAALTFDNVTSGEYAYALYDGDTVIAPENYQVTEQANGFTVAVNPAYIPTLTPGGTLKFVYFMHLNEKADPTKGFKNEANVDNGHTDDQTPPTVEVVTGGKRFIKVDGDVTATQALAGASFVVRDQNSDTANYLKIDETTKAATWVKTKAEATTFTTTADGLVDITGLKYGTYYLEETVAPDDYVLLTNRIEFVVNEQSYGTTENLVSPEKVPNKHK
notes: as for B2
B4: EF0089 A domain (EF0089A), N-terminal His6-tag fusion protein (other)
chain: EEVNSDGQLTLGEVKQTSQQEMTLALQGKAQPVTQEVVVHYSANVSIKAAHWAAPNNTRKIQVDDQKKQIQIELNQQALADTLVLTLNPTATEDVTFSYGQQQRALTLKTGTDPTESTAITSSPAASANEGSTEEASTNSSVPRSSEETVASTTKAIESKTTESTTVKPRVAGPTDISDYFTGDETTIIDNFEDPIYLNPDGTPATPPYKEDVTIHWNFNWSIPEDVREQMKAGDYFEFQLPGNLKPNKPGSGDLVDAEGNVYGTYTISEDGTVRFTFNERITSESDIHGDFSLDTHLNDSDGRGPGDWVIDIPTQEDLPPVVIPIVPDTEQQIDKQGHFDRTPNPSAITWTVDINQAMKDQTNPTVTETWPTGNTFKSVKVYELVMNLDGTIKEVGRELSPDEYTVDKNGNVTIKGDTNKAYRLEYQTTIDEAVIPDGGGDVPFKNHATLTSDNNPNGLDAEATVTATYGKMLDKRNIDYDEANQEFTWEINYNYGEQTIPKDQAVITDTMGDNLTFEPDSLHLYSVTFDDKGNEVVGAELVEGKDYKVVINGDGSFAIDFLHDVTGAVKIDYKTKVDGIVEGDVAVNNRVDVGTGQHSEDDGTASQQNIIKNTGAVDYQNSTIGWTLAVNQNNYLMENAVITDTYEPVPGLTMVPNSLVVKDTTTGAQLTLGKDFMVEITRNADGETGFKVSFIGAYAKTSDAFHITYTTFFDVTELDANNPALDHYRNTAAIDWTDEAGNNHHSEDSKPFKPLPAFDLNAQKSGVYNAVTKEITWTIAVNLSNNRLVDAFLTDPILTNQTYLAGSLKVYEGNTKPDGSVEKVKPTQPLTDITMEEPSEKNQNTWRVDFPNDSRTYVIEFKTSVDEKVIEGSASYDNTASYTNQGSSRDVTGKVSIQHGGESVKKGGEYHKDDPDHVYWHVMINGAQSVLDDVVITDTPSPNQVLDPESLVIYGTNVTEDGTITPDKSVILEEGKDYTLEVTTDNETGQQKIVVKMAHIEAPYYMEYRSLVTSSAAGSTDTVSNQVSITGNGSEVVHGDDNGDVVVDIDHSGGHATGTKGKIQLKKTAMDETTILAGAHFQIWDQAKTQVLREGTVDATGVITFGG
notes: as for B1

What was measured:
[1] = target: T1, human fibrinogen; experiment: ELISA, ECM protein coated, His-tag protein detected with anti-His6 mAb
Experimental: Plates were washed once with PBS and blocked with 1% BSA in PBS for 1 h. Fifty □l of 5 and 10 µM concentrations of purified His-tag proteins in the blocking buffer were added and incubated at ambient temperature for 2 h. Plates were washed three times with 0.05% Tween20 in PBS and incubated 2 h with 1:3000 dilution of His₆-tag monoclonal antibody (Amersham Biosciences Corp., Piscataway, N.J.) in blocking buffer. After three washes, 1:3000 dilution of alkaline phosphatase-conjugated anti-mouse antibody in blocking buffer was added to the wells and incubated 2 h. Finally, signal was detected with nitrobluetetrazolium (NBT) and 5-bromo-4-chloro-3-indolyl-phosphate (BCIP) in 0.1 M NaHCO₃, 1 mM MgCl₂, pH 9.8. Absorbance at 405 nm was measured with an ELISA reader

[2] = target: T1, human fibrinogen; experiment: screen of binding to ECM proteins; format not detailed for EF1269
[3] = target: T1, human fibrinogen; experiment: ELISA, ECM protein coated, recombinant protein detected with mouse antiserum; positive if signal 2.5x background

| Binder | binding result [1] | also measured |
| --- | --- | --- |
| B1 | binds |  |
| B2 |  | binding result [2]: no binding |
| B3 |  | binding result [3]: binds |
| B4 | binds |  |

Reference: patent US20040101919A1 (TEXAS A AND M UNIVERSITY SYSTEM, published 2004)
